Test results: patent publication US20230203202A1 (DRAGONFLY THERAPEUTICS, published 2023)

Key:
[1] = biological target: T1, human 5T4 on the cell surface (human, UniProt Q13641 32-420); assay: cell-based or functional assay
T1 sequence (looked up): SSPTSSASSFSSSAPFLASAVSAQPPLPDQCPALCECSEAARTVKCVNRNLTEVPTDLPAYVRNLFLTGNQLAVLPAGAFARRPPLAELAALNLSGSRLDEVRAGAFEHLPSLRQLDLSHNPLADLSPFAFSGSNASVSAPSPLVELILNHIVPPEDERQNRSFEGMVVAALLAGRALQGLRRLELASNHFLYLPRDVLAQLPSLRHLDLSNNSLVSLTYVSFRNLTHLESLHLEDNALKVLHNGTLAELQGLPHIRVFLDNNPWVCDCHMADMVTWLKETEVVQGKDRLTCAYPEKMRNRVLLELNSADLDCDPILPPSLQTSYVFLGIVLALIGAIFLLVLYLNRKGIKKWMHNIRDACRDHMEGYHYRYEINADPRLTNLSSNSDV

[2] = biological target: T1, human 5T4 on the cell surface; assay: cell-based or functional assay; remark: listed apart in the source
[3] = biological target: T1, human 5T4 on the cell surface; assay: cell-based or functional assay; remark: listed apart in the source
[4] = biological target: T2, human NKG2D on CD8+ T cells (human, UniProt P26718 1-216); assay: cell-based or functional assay
T2 sequence (looked up): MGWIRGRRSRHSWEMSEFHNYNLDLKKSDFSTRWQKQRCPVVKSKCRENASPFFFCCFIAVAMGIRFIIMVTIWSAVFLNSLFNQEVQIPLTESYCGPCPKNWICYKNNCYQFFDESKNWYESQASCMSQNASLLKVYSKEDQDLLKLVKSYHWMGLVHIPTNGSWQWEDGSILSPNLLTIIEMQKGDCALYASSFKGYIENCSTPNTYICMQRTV

[5] = biological target: T1, human 5T4 on the cell surface; assay: cell-based or functional assay; remark: listed apart in the source
[6] = biological target: T1, human 5T4 on the cell surface; assay: flow cytometry on HT29 cells (5,000 5T4 per cell)
[7] = biological target: T1, human 5T4 on the cell surface; assay: flow cytometry on BT474 cells (20,000 5T4 per cell)
[8] = biological target: T1, human 5T4 on the cell surface; assay: flow cytometry on H1703 cells (15,000 5T4 per cell)
[9] = biological target: T1, human 5T4 on the cell surface; assay: flow cytometry on H1975 cells (22,000 5T4 per cell)
[10] = biological target: T1, human 5T4 on the cell surface; assay: flow cytometry on HCC4006 cells (53,000 5T4 per cell)
[11] = biological target: T3, human 5T4 (SPR and epitope mapping, construct not stated) (human, UniProt Q13641 32-355, limits assumed); assay: SPR, h5T4 binding; sample stressed in acetate pH 4, 7 days 40 °C
T3 construct: also called h5T4
T3 sequence (looked up): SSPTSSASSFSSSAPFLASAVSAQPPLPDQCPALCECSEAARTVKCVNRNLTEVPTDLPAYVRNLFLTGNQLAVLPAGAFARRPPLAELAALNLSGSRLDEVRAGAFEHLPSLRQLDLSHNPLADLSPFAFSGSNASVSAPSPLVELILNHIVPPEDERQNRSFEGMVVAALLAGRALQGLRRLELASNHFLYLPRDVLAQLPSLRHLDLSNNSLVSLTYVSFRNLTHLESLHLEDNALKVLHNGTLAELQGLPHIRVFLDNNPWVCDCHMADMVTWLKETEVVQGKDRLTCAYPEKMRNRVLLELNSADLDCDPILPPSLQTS

[12] = biological target: T3, human 5T4 (SPR and epitope mapping, …); assay: SPR, Biacore 8K, 37 °C, TriNKET captured on anti-hFc chip, pH 6.0
Protocol: Briefly, SPR was performed using a Biacore 8K instrument at physiological temperature of 37° C. Briefly, human Fc specific antibodies were covalently immobilized at a density of about 8000-10000 resonance units (RU) on carboxy methyl dextran matrix of a CM5 biosensor chip to create an anti-hFc IgG chip. Samples were injected on the anti-hFc IgG chip at a flow rate of 10 μL/min for 60 seconds. Protein was serially diluted (300 nM-0.14 nM) in three-fold dilutions with running buffer and injected at a flow rate of 30 μl/min over the captured test articles. Association was monitored for 240-300 seconds, and dissociation was monitored for 300-900 seconds. Surfaces were regenerated between cycles with three pulses of 10 mM glycine-HCl (pH 1.7) injected for 20 seconds at 100 μL/min.

[13] = biological target: T1, human 5T4 on the cell surface; assay: flow cytometry on H292 cells (11,000 5T4/cell), fold over background
Protocol: (§1) The KYSE-30 and H292 human cancer cell lines, derived from esophageal squamous cell carcinoma and non-small cell lung carcinoma, respectively, were used. […] After incubation, binding patterns of the TriNKET® and mAb to 5T4+ cells were detected using a fluorophore conjugated anti-human IgG secondary antibody. Cells were analyzed by flow cytometry and fold MFI over secondary-only controls reported.

[14] = biological target: T1, human 5T4 on the cell surface; assay: flow cytometry on KYSE-30 cells (61,000 5T4/cell), fold over background
Protocol: as §1

[15] = biological target: T1, human 5T4 on the cell surface; assay: flow cytometry on primary lung cancer-associated fibroblasts (Donor #377913A1), fold over background

ADCP of KYSE-30 cells by M0 macrophages, EC50 [1]: 0.089 nM
ADCP of NCI-H292 cells by M0 macrophages, EC50 [1]: 0.15 nM
NK cell-mediated lysis of 786-O cells (DELFIA), EC50 [2]: 0.19 nM
NK cell-mediated lysis of BT474 cells (DELFIA), EC50 [2]: 0.14 nM
NK cell-mediated lysis of Detroit 562 cells (DELFIA), EC50 [2]: 0.23 nM
NK cell-mediated lysis of FaDu cells (DELFIA), EC50 [2]: 0.19 nM
NK cell-mediated lysis of H292 cells (DELFIA), EC50 [2]: 0.1 nM
NK cell-mediated lysis of H1703 cells (DELFIA), EC50 [2]: 0.14 nM
NK cell-mediated lysis of H1975 cells (DELFIA), EC50 [2]: 0.29 nM
NK cell-mediated lysis of HCC4006 cells (DELFIA), EC50 [2]: 0.24 nM
NK cell-mediated lysis of HCT116 cells (DELFIA), EC50 [2]: 0.097 nM
NK cell-mediated lysis of HT29 cells (DELFIA), EC50 [2]: 0.42 nM
NK cell-mediated lysis of KYSE-30 cells (DELFIA), EC50 [2]: 0.072 nM
NK cell-mediated lysis of primary CAFs, EC50 (first column pair) [3]: 0.081 nM
NK cell-mediated lysis of primary CAFs, EC50 (second column pair) [3]: 0.19 nM
CD8+ T-cell lysis of BT-474 cells (Incucyte, 72 h), EC50 [4]: 0.66 nM
CD8+ T-cell lysis of FaDu cells (Incucyte, 72 h), EC50 [4]: 0.59 nM
long-term NK cell-mediated inhibition of HCT 116 cells (Incucyte, 72 h), EC50 [5]: 0.16 nM
long-term NK cell-mediated inhibition of HT-29 cells (Incucyte, 72 h), EC50 [5]: 1.3 nM
long-term NK cell-mediated inhibition of KYSE-30 cells (Incucyte, 72 h), EC50 [5]: 0.087 nM
long-term NK cell-mediated inhibition of NCI-H292 cells (Incucyte, 72 h), EC50 [5]: 0.37 nM
EC50 [6]: 4.1 nM
EC50 [7]: 3.7 nM
EC50 [8]: 2.6 nM
EC50 [9]: 1.9 nM
EC50 [10]: 7.6 nM
Kd [11]: 7.6 nM
koff [11]: 0.00091 s⁻¹
kon [11]: 120000 M⁻¹ s⁻¹
Kd [12]: 9.4 nM
koff [12]: 0.0012 s⁻¹
kon [12]: 120000 M⁻¹ s⁻¹
EC50 (read off the curve) [13]: ~3 nM
EC50 (read off the curve) [14]: ~2 nM
EC50 (read off the curve) [15]: ~4 nM
B1: AB1310/AB1783-TriNKET® (bispecific antibody, human IgG1, kappa)
chain: DIQLTQSPSSLSASVGDRVTITCRASQSVTTSNYNYMHWFQQKPGKAPKLLIKFASNLESGVPSRFSGSGSGTDFTLTISSLQPEDFATYYCQHSWEIPWTFGCGTKVEIKGGGGSGGGGSGGGGSGGGGSEVQLVESGGGLVKPGGSLRLSCAASRFTFSDFGMHWVRQAPGKCLEWVSYISSGSSTIYYADSVKGRFTISRDNAKNSLYLQMNSLRAEDTAVYYCASSQSYYRGTLDYWGQGTTVTVSSASDKTHTCPPCPAPELLGGPSVFLFPPKPKDTLMISRTPEVTCVVVDVSHEDPEVKFNWYVDGVEVHNAKTKPREEQYNSTYRVVSVLTVLHQDWLNGKEYKCKVSNKALPAPIEKTISKAKGQPREPRVYTLPPCRDELTKNQVSLTCLVKGFYPSDIAVEWESNGQPENNYKTTPPVLVSDGSFTLYSKLTVDKSRWQQGNVFSCSVMHEALHNHYTQKSLSLSPG
heavy: EVQLVESGGGLVKPGGSLRLSCAASGFTFSSYSMNWVRQAPGKGLEWVSSISSSSSYIYYADSVKGRFTISRDNAKNSLYLQMNSLRAEDTAVYYCARGAPIGAAAGWFDPWGQGTLVTVSSASTKGPSVFPLAPSSKSTSGGTAALGCLVKDYFPEPVTVSWNSGALTSGVHTFPAVLQSSGLYSLSSVVTVPSSSLGTQTYICNVNHKPSNTKVDKKVEPKSCDKTHTCPPCPAPELLGGPSVFLFPPKPKDTLMISRTPEVTCVVVDVSHEDPEVKFNWYVDGVEVHNAKTKPREEQYNSTYRVVSVLTVLHQDWLNGKEYKCKVSNKALPAPIEKTISKAKGQPREPQVCTLPPSRDELTENQVSLTCLVKGFYPSDIAVEWESNGQPENNYKTTPPVLDSDGSFFLYSWLTVDKSRWQQGNVFSCSVMHEALHNHYTQKSLSLSPG
light: DIQMTQSPSSVSASVGDRVTITCRASQGISSWLAWYQQKPGKAPKLLIYAASSLQSGVPSRFSGSGSGTDFTLTISSLQPEDFATYYCQQGVSFPRTFGGGTKVEIKRTVAAPSVFIFPPSDEQLKSGTASVVCLLNNFYPREAKVQWKVDNALQSGNSQESVTEQDSKDSTYSLSSTLTLSKADYEKHKVYACEVTHQGLSSPVTKSFNRGEC
notes: also called AB1310-TriNKET®; AB1783 10F10 F3′ LH H(T62S) CHO opt
